Measured values as given in US20180163216, “GENE EXPRESSION IN BACTEROIDES” (Massachusetts Institute of Technology, published 2018).

Columns and labels:
Int12 serine integrase = test system: T1, Int12 serine integrase; experiment: cell_activity; conditions: flipping in <1 day in mouse gut with rhamnose; also inversion by PCR in vitro culture
T1 sequence: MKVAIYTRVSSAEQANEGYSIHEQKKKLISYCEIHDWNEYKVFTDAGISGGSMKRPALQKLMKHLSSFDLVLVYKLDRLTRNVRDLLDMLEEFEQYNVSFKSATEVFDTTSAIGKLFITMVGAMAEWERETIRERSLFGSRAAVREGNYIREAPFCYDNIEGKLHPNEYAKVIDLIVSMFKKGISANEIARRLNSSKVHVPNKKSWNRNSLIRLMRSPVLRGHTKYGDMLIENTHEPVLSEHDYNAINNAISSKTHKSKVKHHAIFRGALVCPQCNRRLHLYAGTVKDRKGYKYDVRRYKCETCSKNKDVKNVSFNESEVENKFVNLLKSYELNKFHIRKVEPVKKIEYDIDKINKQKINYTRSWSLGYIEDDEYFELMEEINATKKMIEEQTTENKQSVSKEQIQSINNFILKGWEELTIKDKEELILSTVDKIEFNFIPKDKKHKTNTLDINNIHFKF

[1] = test system: RhaR (AraC/XylS-family activator) (Bacteroides thetaiotaomicron); experiment: cell_activity; conditions: printed 104-fold (10^4); rhamnose-induced NanoLuc; K=0.3 mM rhamnose, n=1.4
LacIQ repressor [2] = molecular target: T2, LacIQ repressor (Escherichia coli, UniProt P03023 SEQ:5-363); experiment: cell_activity; fold induction by IPTG; K=86 uM IPTG; conditions: expressed from PBT1311 in B. thetaiotaomicron; chain copies: 4
Excerpt: (§1) Next, an IPTG-inducible system was developed. Pairs of LacO1 operator sites were inserted in the strong PcfxA promoter in three locations: upstream of the −33 element (O1), between the −33 and −7 elements (O2) or just downstream of the transcription start site (O3) (FIGS. 7A-7B).

LacIQ repressor [3] = molecular target: T2, LacIQ repressor; experiment: cell_activity; fold induction by IPTG; K=6 uM IPTG; conditions: expressed from PBT1311 in B. thetaiotaomicron; chain copies: 4
Excerpt: as §1

T2 sequence (P03023 2-360): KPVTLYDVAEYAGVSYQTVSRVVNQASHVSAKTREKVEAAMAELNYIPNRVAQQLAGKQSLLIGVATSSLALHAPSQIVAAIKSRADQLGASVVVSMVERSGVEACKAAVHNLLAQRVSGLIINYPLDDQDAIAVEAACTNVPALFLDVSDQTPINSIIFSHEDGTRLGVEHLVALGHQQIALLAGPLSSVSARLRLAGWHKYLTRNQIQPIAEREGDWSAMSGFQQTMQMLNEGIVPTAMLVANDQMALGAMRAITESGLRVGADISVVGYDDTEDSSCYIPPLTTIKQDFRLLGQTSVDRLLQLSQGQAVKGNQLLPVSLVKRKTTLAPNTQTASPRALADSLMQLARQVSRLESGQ

Q: Int12 attB/attP in memory array was tested. Which activity (Int12 serine integrase) did it give?
A: > 90%

Q: For “TATTTCGGAGAAAACATGCATAAATCATGCTTTTTTTGCATAAAAAGTAAAATTTATACTGATGTAAGGTTTGGCTATGCAGATTTGTGTCAAAATGCACATCCTTTCTATCAAAATGCGTAAGGAAAAGGAGGAAGGAACCGCCTATCTTTGCAATGTAGGTAAATGGATACCTTAAATATATAGACAAAATACC (double strand) [PBT3763]”, which activity [1] is on record?
A: 10000 fold

B1: PLacO13 (dsDNA)
DNA 1: TTACAAAGAAAATTCGACAAACTGTTATTTTTCTATCTATTTAAATTGTGAGCGGATAACAATTTGGGTGGGAAACTTTAGTTATGTACCTTTGTCGGCAATTGTGAGCGGATAACAATTAAATAAAGATATTCTCGTCAAACAAATATAAATAATATAAAC
DNA 2: GTTTATATTATTTATATTTGTTTGACGAGAATATCTTTATTTAATTGTTATCCGCTCACAATTGCCGACAAAGGTACATAACTAAAGTTTCCCACCCAAATTGTTATCCGCTCACAATTTAAATAGATAGAAAAATAACAGTTTGTCGAATTTTCTTTGTAA
Q: B1 was tested. Which activity (LacIQ repressor [2]) did it give?
A: 8 fold

B2: PLacO23 (dsDNA)
DNA 1: TTACAAAGAAAATTCGACAAACTGTTATTTTTCTATCTATTTATTTGAATTGTGAGCGGATAACAATTACCTTTGTCGGCAATTGTGAGCGGATAACAATTAAATAAAGATATTCTCGTCAAACAAATATAAATAATATAAAC
DNA 2: GTTTATATTATTTATATTTGTTTGACGAGAATATCTTTATTTAATTGTTATCCGCTCACAATTGCCGACAAAGGTAATTGTTATCCGCTCACAATTCAAATAAATAGATAGAAAAATAACAGTTTGTCGAATTTTCTTTGTAA
Q: With B2 as the molecule, how does the activity (LacIQ repressor [3]) read?
A: 22 fold
